Results taken from IntAct's records for PubMed 27599036.

B1: Ferrochelatase, mitochondrial (Homo sapiens), P22830 (parent)
chain: MRSLGANMAAALRAAGVLLRDPLASSSWRVCQPWRWKSGAAAAAVTTETAQHAQGAKPQVQPQKRKPKTGILMLNMGGPETLGDVHDFLLRLFLDRDLMTLPIQNKLAPFIAKRRTPKIQEQYRRIGGGSPIKIWTSKQGEGMVKLLDELSPNTAPHKYYIGFRYVHPLTEEAIEEMERDGLERAIAFTQYPQYSCSTTGSSLNAIYRYYNQVGRKPTMKWSTIDRWPTHHLLIQCFADHILKELDHFPLEKRSEVVILFSAHSLPMSVVNRGDPYPQEVSATVQKVMERLEYCNPYRLVWQSKVGPMPWLGPQTDESIKGLCERGRKNILLVPIAFTSDHIETLYELDIEYSQVLAKECGVENIRRAESLNGNPLFSKALADLVHSHIQSNELCSKQLTLSCPLCVNPVCRETKSFFTSQQL

Variants of: B1
Conditions: with pgrc1_human PGRMC1, O00264
pgrc1_human PGRMC1, O00264, sequence (O00264 whole entry): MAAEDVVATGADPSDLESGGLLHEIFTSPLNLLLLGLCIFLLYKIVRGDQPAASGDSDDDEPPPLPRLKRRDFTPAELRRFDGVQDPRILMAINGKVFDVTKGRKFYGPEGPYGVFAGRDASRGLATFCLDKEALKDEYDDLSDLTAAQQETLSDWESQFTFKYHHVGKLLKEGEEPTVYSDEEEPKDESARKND

| effect of a mutation on the interaction | Variant |
| --- | --- |
| increasing interaction strength | F110A |
| disrupting interaction strength | E343K |
